In patent US20210388105A1 (ELPISCIENCE SUZHOU BIOPHARMA, published 2021):

T1: KW27-19 (human CD39 mutant, C-terminal EGFP) (human, UniProt P49961 1-510)
T1 construct: expressed on HEK293F cells; not shown: C-terminal EGFP fusion (vector pCMV3-GFPSpark)
T1 chain: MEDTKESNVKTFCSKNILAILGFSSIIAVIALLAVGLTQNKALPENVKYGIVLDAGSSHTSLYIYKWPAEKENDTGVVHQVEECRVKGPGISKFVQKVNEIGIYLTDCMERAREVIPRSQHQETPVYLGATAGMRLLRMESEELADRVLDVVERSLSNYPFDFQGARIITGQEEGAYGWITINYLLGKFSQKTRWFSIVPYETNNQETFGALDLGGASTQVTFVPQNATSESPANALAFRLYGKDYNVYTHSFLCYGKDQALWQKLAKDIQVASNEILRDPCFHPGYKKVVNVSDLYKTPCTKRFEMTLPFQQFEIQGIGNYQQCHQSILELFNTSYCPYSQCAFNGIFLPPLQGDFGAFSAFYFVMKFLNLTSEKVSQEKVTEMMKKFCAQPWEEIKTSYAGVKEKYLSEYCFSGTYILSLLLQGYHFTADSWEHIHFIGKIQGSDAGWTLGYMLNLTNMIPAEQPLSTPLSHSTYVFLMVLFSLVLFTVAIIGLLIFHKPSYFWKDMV

T2: KW27-9 (human CD39 mutant, C-terminal EGFP) (human, UniProt P49961 1-510)
T2 construct: expressed on HEK293F cells; not shown: C-terminal EGFP fusion (vector pCMV3-GFPSpark)
T2 chain: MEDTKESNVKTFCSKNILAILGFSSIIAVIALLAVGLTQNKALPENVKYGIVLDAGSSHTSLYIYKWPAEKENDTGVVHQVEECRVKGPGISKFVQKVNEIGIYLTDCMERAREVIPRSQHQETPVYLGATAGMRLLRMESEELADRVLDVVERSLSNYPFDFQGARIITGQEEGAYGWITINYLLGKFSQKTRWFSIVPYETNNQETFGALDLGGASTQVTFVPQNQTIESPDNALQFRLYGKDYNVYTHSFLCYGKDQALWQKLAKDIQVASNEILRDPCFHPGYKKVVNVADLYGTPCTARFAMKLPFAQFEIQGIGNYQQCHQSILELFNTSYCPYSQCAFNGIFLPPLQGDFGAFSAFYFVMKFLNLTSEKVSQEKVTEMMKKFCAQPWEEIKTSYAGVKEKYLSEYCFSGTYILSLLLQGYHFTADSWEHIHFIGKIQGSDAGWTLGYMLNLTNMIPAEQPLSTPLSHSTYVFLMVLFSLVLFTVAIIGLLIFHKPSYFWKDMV

T3: KW27-10 (human CD39 mutant, C-terminal EGFP) (human, UniProt P49961 1-510)
T3 construct: expressed on HEK293F cells; not shown: C-terminal EGFP fusion (vector pCMV3-GFPSpark)
T3 chain: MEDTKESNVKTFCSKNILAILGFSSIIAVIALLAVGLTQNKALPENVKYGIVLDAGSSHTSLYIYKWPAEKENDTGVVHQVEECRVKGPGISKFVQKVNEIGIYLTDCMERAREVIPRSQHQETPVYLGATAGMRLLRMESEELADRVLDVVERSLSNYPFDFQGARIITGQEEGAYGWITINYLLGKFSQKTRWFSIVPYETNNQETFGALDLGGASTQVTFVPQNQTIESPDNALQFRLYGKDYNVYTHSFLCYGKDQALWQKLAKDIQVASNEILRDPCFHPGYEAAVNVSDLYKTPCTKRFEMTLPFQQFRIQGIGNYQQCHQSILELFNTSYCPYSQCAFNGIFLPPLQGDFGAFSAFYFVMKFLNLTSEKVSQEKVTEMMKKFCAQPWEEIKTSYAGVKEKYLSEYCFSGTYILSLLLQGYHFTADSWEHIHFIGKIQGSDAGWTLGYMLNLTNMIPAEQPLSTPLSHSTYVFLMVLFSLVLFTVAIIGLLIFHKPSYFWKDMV

T4: KW27-13 (human CD39 mutant, C-terminal EGFP) (human, UniProt P49961 1-510)
T4 construct: expressed on HEK293F cells; not shown: C-terminal EGFP fusion (vector pCMV3-GFPSpark)
T4 chain: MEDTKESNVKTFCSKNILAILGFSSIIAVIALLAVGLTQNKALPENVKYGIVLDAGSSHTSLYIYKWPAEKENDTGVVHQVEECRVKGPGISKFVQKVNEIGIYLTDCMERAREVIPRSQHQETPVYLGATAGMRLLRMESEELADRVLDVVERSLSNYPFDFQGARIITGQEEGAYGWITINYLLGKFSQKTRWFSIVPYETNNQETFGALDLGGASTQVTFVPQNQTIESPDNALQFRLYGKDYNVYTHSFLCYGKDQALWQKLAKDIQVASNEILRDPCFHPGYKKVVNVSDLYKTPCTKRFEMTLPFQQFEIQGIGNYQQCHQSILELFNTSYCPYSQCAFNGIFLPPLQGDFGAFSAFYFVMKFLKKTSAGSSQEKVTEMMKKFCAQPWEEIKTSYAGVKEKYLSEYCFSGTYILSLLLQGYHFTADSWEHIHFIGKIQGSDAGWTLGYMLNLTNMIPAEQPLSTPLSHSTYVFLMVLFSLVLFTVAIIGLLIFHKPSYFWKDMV


Legend:
Test in all cases: FACS, mutant-EGFP on HEK293F cells
[1] = target: T1, KW27-19 (human CD39 mutant, C-terminal …)
In short: (§1)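 HEK293F cells were transfected with human CD39 mutants carrying C-terminal GFP and used 3 days later. Antibodies were titrated from 100 nM (3-fold, 11 points) and detected by FACS with AlexaFluor647 anti-hIgG. Relative binding was AlexaFluor647 intensity divided by GFP intensity.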

[2] = target: T2, KW27-9 (human CD39 mutant, C-terminal …)
In short: as §1

[3] = target: T3, KW27-10 (human CD39 mutant, C-terminal …)
In short: as §1

[4] = target: T4, KW27-13 (human CD39 mutant, C-terminal …)
In short: as §1

Row | Binder | binding result [1] | binding result [2] | binding result [3] | binding result [4]
1 | c35 (antibody, V domains shown, its making is not described; also called chimeric antibody c35) VH: EVRLQQSGAELVKPGASVKLSCTASGFNIEDTYVHWMKQRPEQGLEWIGRIDPAIDNSKYDPKFQGKATITAVSSSNTAYLQLSSLTSEDTAVYYCALYDGYNVYAMDYWGQGTSVTVSS VL: DIVMTQAAFSNPVTLGTSASISCRSSKNLLHSNGITYLYWYLQRPGQSPQLLIYRASTLASGVPNRFSGSESGTDFTLRISRVEAEDVGVYYCAQLLELPHTFGGGTKLEIK | binds | binds | binds | binds
2 | hu23.H5L5 (antibody, V domains shown, humanized c23) VH: QVQLVQSGAEVKKPGASVKVSCKASGYNLKDTFLHWVRQAPGQGLEWMGRIDPANGNIKYDPKFQGRVTITADTSANTAYMELISLRSEDTAVYYCANSPYYYGSGYRIFDVWGQGTTVTVSS VL: QIVLTQSPATLSLSPGERATLSCSAFSSVNYMHWYQQKPGQAPRLLIYTTSNLASGIPTRFSGSGSGTSYTLTISSLEPEDFAVYYCQQRSTYPFTFGQGTKLEIK | binds | binds | binds | binds

Second part, the binder after the results:

Row | binding result [1] | binding result [2] | binding result [3] | binding result [4] | Binder
3 | binds | binds | binds | binds | Antibody 9-8B (antibody, V domains shown) VH: QIQLVQSGPELKKPGETVKISCKASGYTFTHYGMNWVKQAPGKGLKWMGWINTYTGELTYADDFKGRFAFSLETSASTAYLQINNLKNEDTATYFCARRAYYRYDYVMDYWGQGTSVTVSS VL: DIVMTQSQKFMSTSVGDRVSVTCKASHNVGTNVAWYQQKPGQSPKALIYSASYRYSGVPGRFTGSGSGTDFTLTISNVQSEDLAEYFCHQYNNYPYTFGGGTKLEIK
4 | binds | binds | binds | binds | Antibody T895 (antibody, V domains shown, also called 31895) VH: EVQLQQSGPELVKPGASVKMSCKASGYTFTDYNMHWVKQSHGRTLEWIGYIVPLNGGSTFNQKFKGRATLTVNTSSRTAYMELRSLTSEDSAAYYCARGGTRFAYWGQGTLVTVSA VL: not shown
5 | binds | binds | binds | binds | c34 (antibody, V domains shown, its making is not described; also called chimeric antibody c34) VH: EIQVQQSGPELVKPGASVKVSCKASGYSFTDYNMYWVKQSHGKSLEWIGFIDPYNGYTSYNQKFKGKATLTIDKSSSTAFMHLNSLTSEDSAVYYCAIYGYDDAYYFDYWGQGTTLTVSS VL: QIVLTQSPAIMSASPGEKVTITCSATSSVSYMHWFRQKPGTSPKLWIYSTSNLASGVPARFSGSGSGTSYSLTISRMAAEDAATYYCQQRITYPFTFGSGTKLEIT
